The values below come from the RNAGym collection of RNA variant scans (doi:10.7554/elife.80360).

B1: CPEB3 Ribozyme (parent)
chain: GGGGGCCACAGCAGAAGCGUUCACGUCGCGGCCCCUGUCAGAUUCUGGUGAAUCUGCGAAUUCUGCUGU

In this data set the parent is B1. In words: self-cleavage, relative activity (ratio to wild type); higher = more cleavage; co-transcriptional.
Turning to A23U C35G, the self-cleavage was 0.658.

For A23U C35U, the self-cleavage amounted to 0.974.

For C24A G50C, the self-cleavage stood at 0.665.

As for C24A G50A, the self-cleavage amounted to 0.719.

On to A23G U49A, for which the self-cleavage came out at 0.957.

For the variant A23G U49G, the self-cleavage turned out to be 1.03.

For the variant A23G U49C, the self-cleavage was determined as 0.966.

For A23U A40C, the self-cleavage is 0.678.

For A23U A40U, the self-cleavage came to 0.924.

Turning to A23U A40G, the self-cleavage was 0.951.

Turning to C24G C33U, the self-cleavage turned out to be 0.38.

Take A23G G68U: the self-cleavage came out at 1.

For A23G G68A, the self-cleavage turned out to be 0.97.

On to A23G G68C, for which the self-cleavage was found to be 0.971.

Turning to A23U G31U, the self-cleavage was determined as 0.842.

Turning to A23U G31C, the self-cleavage is 0.215.

As to C24A C32U, the self-cleavage is 0.729.

Take C24A C32A: the self-cleavage worked out at 0.31.

Take C24A A40C: the self-cleavage amounted to 0.31.

On to C24A A40G, for which the self-cleavage was 0.591.

C24A A52G: the self-cleavage was determined as 0.772.

As for C24A U49A, the self-cleavage came out at 0.815.

With C24G A59G, the self-cleavage amounted to 0.518.

As to C24G A59U, the self-cleavage was 0.225.

Turning to C24G A59C, the self-cleavage amounted to 0.141.

In the case of C24G C45U, the self-cleavage worked out at 0.464.

Turning to C24G C45G, the self-cleavage worked out at 0.436.

For C24G C45A, the self-cleavage was determined as 0.485.

On to A23U G50A, for which the self-cleavage worked out at 1.01.

For the variant A23U G50U, the self-cleavage came out at 0.958.

With A23U G50C, the self-cleavage was 0.978.

On to A23G C33A, for which the self-cleavage worked out at 0.679.

Turning to A23G C33G, the self-cleavage came to 0.262.

As for A23G C33U, the self-cleavage stood at 0.939.

Take C24A U46C: the self-cleavage was found to be 0.754.

In the case of C24A U46G, the self-cleavage is 0.816.

With C24A U46A, the self-cleavage came to 0.793.

With C24A G58U, the self-cleavage was 0.773.

Take C24A G58A: the self-cleavage was determined as 0.4.

Consider C24G C63G, for which the self-cleavage was 0.199.

Consider C24G C63U, for which the self-cleavage stood at 0.339.

With C24G C63A, the self-cleavage was 0.237.

On to A23G U38G, for which the self-cleavage is 0.245.

For the variant A23G U38A, the self-cleavage is 0.897.

Consider A23G U38C, for which the self-cleavage was 0.946.

A23U U36G: the self-cleavage was determined as 0.35.

Turning to A23U U36C, the self-cleavage was found to be 0.996.

For A23U U36A, the self-cleavage is 0.222.

In the case of A23U G56A, the self-cleavage worked out at 1.01.

A23U G56U: the self-cleavage came out at 0.955.

In the case of A23U G56C, the self-cleavage was determined as 0.936.

In the case of C24A U53G, the self-cleavage was 0.506.

Regarding C24A U53A, the self-cleavage stood at 0.537.

With C24A U53C, the self-cleavage is 0.603.

For the variant A23U C45U, the self-cleavage amounted to 0.975.

As to A23U U53G, the self-cleavage stood at 0.959.

Turning to A23U U53A, the self-cleavage is 0.903.

With A23U U53C, the self-cleavage stood at 0.928.

With A23U U62A, the self-cleavage is 0.635.

As to A23G U62G, the self-cleavage is 0.75.

A23G U62C: the self-cleavage is 0.667.

Take A23G U62A: the self-cleavage worked out at 0.948.

For the variant A23G C24U, the self-cleavage stood at 0.833.

Regarding A23G C24G, the self-cleavage stood at 0.36.

As for A23G C24A, the self-cleavage was 0.711.

Take A23U C66G: the self-cleavage was determined as 0.848.

A23U C66U: the self-cleavage was determined as 0.964.

Turning to A23G G56C, the self-cleavage was determined as 0.751.

As for A23G G56U, the self-cleavage was 0.914.

As for C24A C33U, the self-cleavage is 0.761.

Consider C24A C33G, for which the self-cleavage worked out at 0.33.

Turning to C24A C33A, the self-cleavage came out at 0.38.

Consider A23G G50C, for which the self-cleavage was determined as 1.01.

As for A23U C24A, the self-cleavage is 0.888.

For A23G G48C, the self-cleavage turned out to be 0.975.

For the variant A23G G48U, the self-cleavage is 0.972.

On to C24G A52G, for which the self-cleavage is 0.527.

As to A23G G30C, the self-cleavage amounted to 0.432.

In the case of A23G G30A, the self-cleavage amounted to 0.79.

A23G G30U: the self-cleavage turned out to be 0.229.

Turning to C24G A60C, the self-cleavage was 0.205.

Consider C24G A60U, for which the self-cleavage turned out to be 0.226.

As to A23G A59U, the self-cleavage turned out to be 0.817.

In the case of A23G A59C, the self-cleavage turned out to be 0.699.

Turning to A23U, the self-cleavage is 1.

With A23U A60U, the self-cleavage stood at 0.66.

On to A23U A60C, for which the self-cleavage was 0.385.

Regarding A23U A60G, the self-cleavage was determined as 0.642.

As for C24A C54U, the self-cleavage turned out to be 0.854.

On to A23G G58C, for which the self-cleavage came to 0.97.

As to C24A U67G, the self-cleavage came to 0.693.

For C24A U67A, the self-cleavage is 0.751.

As to A23G U26A, the self-cleavage stood at 0.773.

For the variant A23G U46C, the self-cleavage turned out to be 0.906.

As to A23U C63A, the self-cleavage was 0.886.

For the variant A23U C63U, the self-cleavage stood at 1.01.

For the variant A23U C63G, the self-cleavage is 0.858.

As to C24G C54G, the self-cleavage came to 0.351.

Take C24G C54A: the self-cleavage came to 0.267.

Take A23U U49G: the self-cleavage came to 0.936.

As for A23U U49C, the self-cleavage was found to be 0.981.

In the case of A23U U49A, the self-cleavage is 1.03.

Take A23U A52U: the self-cleavage was determined as 0.996.

For A23U A52G, the self-cleavage stood at 0.642.

With A23U A52C, the self-cleavage amounted to 1.04.

Take C24A G48U: the self-cleavage was 0.737.

Take C24A G48C: the self-cleavage was 0.786.

As to C24A G48A, the self-cleavage was determined as 0.758.

Consider C24A C63A, for which the self-cleavage amounted to 0.357.

As for C24A C63U, the self-cleavage stood at 0.699.

Consider A23U U67A, for which the self-cleavage was found to be 0.975.

Regarding A23U U67G, the self-cleavage was determined as 0.979.

With A23U U67C, the self-cleavage came to 1.

Take C24G C57A: the self-cleavage is 0.172.

As for C24G C57U, the self-cleavage came out at 0.241.

For C24G C57G, the self-cleavage was 0.13.

Regarding C24G C34G, the self-cleavage came to 0.184.

With C24G C34U, the self-cleavage was determined as 0.57.

As to C24G C34A, the self-cleavage amounted to 0.271.

Regarding C24A U64A, the self-cleavage worked out at 0.492.

With A23U C27A, the self-cleavage amounted to 0.734.

In the case of A23U C27U, the self-cleavage amounted to 0.29.

For the variant A23U C27G, the self-cleavage was found to be 0.164.

Take A23G G47A: the self-cleavage turned out to be 0.996.

A23G G47U: the self-cleavage came out at 0.991.

Regarding A23G G47C, the self-cleavage amounted to 0.944.

On to A23G U36G, for which the self-cleavage stood at 0.227.

Consider A23G U36C, for which the self-cleavage was 0.891.

A23G U36A: the self-cleavage turned out to be 0.241.

As for C24A U62A, the self-cleavage turned out to be 0.364.

With C24A U62C, the self-cleavage is 0.402.

As to A23G U61C, the self-cleavage amounted to 0.614.

In the case of A23G U44G, the self-cleavage turned out to be 1.02.

As for A23G U44C, the self-cleavage stood at 0.904.

In the case of A23G U44A, the self-cleavage is 0.923.

Take A23U C32U: the self-cleavage is 1.01.

With A23U C32G, the self-cleavage stood at 0.71.

In the case of C24A U26G, the self-cleavage stood at 0.283.

For the variant C24A U26A, the self-cleavage turned out to be 0.257.

Take C24A A59U: the self-cleavage came to 0.267.

For C24A A59G, the self-cleavage was 0.731.

With C24A C57G, the self-cleavage worked out at 0.219.

Take C24A C57U: the self-cleavage amounted to 0.248.

Take C24A C29G: the self-cleavage was 0.166.

As to C24A C29U, the self-cleavage came out at 0.158.

Take C24A C29A: the self-cleavage came out at 0.27.

A23G C34U: the self-cleavage worked out at 0.932.

With A23G C34A, the self-cleavage is 0.627.

A23U C39U: the self-cleavage was determined as 0.921.

In the case of A23U C39G, the self-cleavage worked out at 1.02.

For A23U C39A, the self-cleavage was determined as 0.87.

On to C24A U43A, for which the self-cleavage is 0.537.

Take C24A U43G: the self-cleavage is 0.427.

In the case of A23G C57G, the self-cleavage stood at 0.332.

A23G C57U: the self-cleavage was 0.418.

As for A23U G41U, the self-cleavage worked out at 0.868.

Take A23U G41A: the self-cleavage is 0.821.

Take A23U G41C: the self-cleavage was found to be 0.912.

As for A23G A60C, the self-cleavage came out at 0.249.

For A23G A60G, the self-cleavage was 0.866.

Turning to A23G A60U, the self-cleavage amounted to 0.385.

With A23U C54U, the self-cleavage came to 1.02.

Turning to A23U C54G, the self-cleavage was determined as 0.943.

For A23U C54A, the self-cleavage is 0.901.

As for A23G U69A, the self-cleavage amounted to 0.974.

With A23G U69C, the self-cleavage was determined as 1.06.

On to A23G U69G, for which the self-cleavage came out at 1.04.
